This note sets out measurements from PMC12700558, “Aggregation shifts amyloid-β peptides from synaptogenic to synaptotoxic” (The Journal of Clinical Investigation, 2025).

Series [1] deals with human neurons. Briefly: Neuronal cell density (NLS-TdTomato-positive nuclei). The class given is cell-based.
Description: The prepared aliquots of Aβ peptides were added directly to the culture media during each routine half-media change. To support optimal neuronal development, maturation, and function, while preserving essential factors released by neurons and glia, fresh media supplemented with Aβ was provided every other day until DIV10, and then once weekly until DIV45. […] During each media change, the Aβ peptides were introduced into the cultures to achieve final concentrations of 0.2 μM, 0.15 μM, 0.1 μM, 0.05 μM, 0.025 μM, and 0.005 μM. For scrambled and inverted sequence peptides, only the 0.2 μM and 0.025 μM concentrations were tested. At DIV6, we initiated a half-media replacement protocol in which 50% of the old culture medium was carefully removed and replaced with fresh medium containing Aβ peptides at twice the intended final concentration. […] For example, to achieve a final concentration of 0.2 μM, the fresh medium added at DIV6 was prepared at 0.4 μM, yielding a uniform 0.2 μM concentration after mixing with the peptide-free half. Starting from DIV8 and onward, subsequent half-media changes replaced half of the existing medium with fresh medium containing Aβ at the same target concentration (e.g., 0.2 μM), since the remaining half already contained approximately that amount. This approach was designed to mimic a chronic treatment regimen, allowing us to investigate the long-term effects of the peptides on synapse formation and neuronal activity under sustained exposure conditions.
To assess neuronal cytotoxicity induced by Aβ peptides, we employed a novel Td-Tomato cytotoxicity assay that we developed. Human neurons were infected at DIV 6 with a lentiviral vector carrying a plasmid encoding nuclear localization signal (NLS)-TdTomato under the control of the human Synapsin-1 promoter. The use of the Synapsin promoter ensured neuron-specific expression of Td-Tomato. […] When the neurons had reached full maturation, cells were examined for Td-Tomato localization. Neurons displaying cytoplasmic Td-Tomato were counted as indicators of cytotoxicity. […] For Aβ experiments, imaging and scoring were performed at DIV45, immediately after the final peptide exposure. Data were quantified by calculating the density of neurons with cytoplasmic Td-Tomato, normalized to control cultures, and presented graphically. To assess cell viability, the number of Td-Tomato–positive nuclei, which represent surviving neurons, was counted, normalized to control values, and reported in graphs.
The test system of series [2] is human neurons. Briefly: NLS-TdTomato cytotoxicity assay (cytoplasmic leakage of NLS-TdTomato). As for the experimental part:
The MTT assay employs yellow tetrazolium dye that is reduced to a purple formazan crystal by viable cells with active metabolism ([21]). Because it measures metabolic activity in all cells, this assay serves as a broad cytotoxicity read out for the entire glia/neuron coculture system. The amount of formazan produced is then measured because it is directly proportional to the number of viable cells ([21]) (Figure 1B and Supplemental Figure 1A). The nuclear localization TdTomato assay, conversely, enables monitoring of cellular stress by tracking the localization of fluorescent TdTomato fused to a nuclear localization signal. Under healthy conditions, the nuclear localization signal directs the NLS-TdTomato to the nucleus. When toxicity in a cell causes a reduction in ATP levels, NLS-TdTomato leaks out of the nucleus into the cytoplasm, which we scored as an index of toxicity (Figure 1, C and D, and Supplemental Figure 1, B–D). Because the reporter is expressed only in neurons, this assay specifically assesses neurotoxicity within the coculture. We developed this assay because it can be performed on live cells and reflects decreases in ATP levels in these cells. […]
To assess neuronal cytotoxicity induced by Aβ peptides, we employed a novel Td-Tomato cytotoxicity assay that we developed. […] Neurons displaying cytoplasmic Td-Tomato were counted as indicators of cytotoxicity. […]

The subject of series [3] is human neurons cocultured with mouse glia. Conditions: chronic exposure DIV6-DIV45, neurotoxic doses.
Excerpt: The Incucyte Cytotox Green assay, finally, monitors membrane integrity using a DNA dye that gains access to nuclei only when the plasma membrane is compromised (Supplemental Figure 1, F and G).
To obtain a live cell read out of neuronal death, we monitored loss of plasma-membrane integrity with Incucyte Cytotox Green reagent (Sartorius), a cell-impermeant DNA dye that fluoresces upon binding to nuclear DNA once the membrane is breached ([48]). A 250× stock supplied by the manufacturer was thawed on ice and diluted into prewarmed culture medium to a final working concentration of 250 nM immediately before use. For each assay plate, half the medium was removed and replaced with dye-containing medium so that the final dye concentration and vehicle composition were identical across all conditions. For validation, DIV30 cocultures were challenged for 4 hours with 200 μM H2O2; fluorescence images were acquired immediately thereafter. […] Dye was present for 2 hours before imaging to allow equilibrium without inducing additional stress. Ten nonoverlapping fields per well were captured with the 20× objective using green fluorescence channels. Exposure settings were kept constant within an experiment. Images were processed with ImageJ. A top-hat background subtraction was applied to the green channel, and a fluorescence threshold was kept constant across batches. […]

Consider “-.DAEFRHDSGYEVHHQKLVFFAGDVGSNKGAIIGLMVGGVVI.A [Aβ42^arctic]”, for which the “Neuronal cell density, values normalized to Ctrl (Figure 1E)” value in series [1] (0.005 uM chronic DIV6-DIV45, DIV45, biological replicate 1) came to 0.9504; in series [1] (0.005 uM chronic DIV6-DIV45, DIV45, biological replicate 2) it was 0.943; in series [1] (0.005 uM chronic DIV6-DIV45, DIV45, biological replicate 3), 0.9651; in series [1] (0.05 uM chronic DIV6-DIV45, DIV45, biological replicate 1) it was 0.9651; in series [1] (0.05 uM chronic DIV6-DIV45, DIV45, biological replicate 2) it was 0.9896; in series [1] (0.05 uM chronic DIV6-DIV45, DIV45, biological replicate 3), 1.07. Moreover, the “Neuronal cell density, values normalized to Ctrl (Figure 1E)” value was determined as 0.9054 in series [1] (0.1 uM chronic DIV6-DIV45, DIV45, biological replicate 1); 0.8702 in series [1] (0.1 uM chronic DIV6-DIV45, DIV45, biological replicate 2); 1.014 in series [1] (0.1 uM chronic DIV6-DIV45, DIV45, biological replicate 3); 0.8081 in series [1] (0.2 uM chronic DIV6-DIV45, DIV45, biological replicate 1); 0.8351 in series [1] (0.2 uM chronic DIV6-DIV45, DIV45, biological replicate 2); 0.7942 in series [1] (0.2 uM chronic DIV6-DIV45, DIV45, biological replicate 3). For the same substance, in series [1] (higher concentrations, chronic exposure, DIV45), the “Decrease of neuronal cell numbers” value is “approximately 15%”. Besides, in series [2], the “Concentration at which neurotoxicity became apparent, NLS-TdTomato assay” value was “greater than or equal to 0.1 μM”. In addition, in series [3], the “Incucyte Cytotox Green assay, labeled nuclei (in words)” value is given as “modest but consistent rise in labeled nuclei”.
